Test results from publication PMC4050180 (FEBS Open Bio, 2014).

T1: 6xHis-TF-DGKα-C1 domains (porcine, UniProt P20192 196-362)
T1 sequence (looked up): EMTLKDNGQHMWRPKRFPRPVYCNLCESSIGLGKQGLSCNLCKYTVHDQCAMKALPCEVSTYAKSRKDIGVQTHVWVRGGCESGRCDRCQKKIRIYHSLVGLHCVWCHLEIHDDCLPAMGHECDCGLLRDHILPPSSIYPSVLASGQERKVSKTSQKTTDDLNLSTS

B1: GST-DGKα-EF-hand motifs (domain or fragment)
chain: not shown

Assays:
[1] = molecular target: T1, 6xHis-TF-DGKα-C1 domains; assay: pull-down
[2] = molecular target: B1; assay: pull-down

binding result [1]	band intensity relative to the RVH domain [2]	Binder
binds	–	B1
–	~3 fold	EGFP-DGKα-C-terminal region (domain or fragment) not shown
